B1: anti-VLY scFv 9B4 (VL-VH) (scFv, V domains shown)
VH: QVQLEQSGPGLVAPSESLTITCTVSGFSLNSYGVHWVRQPPGKGLEWVGVMWAGGNTSYNSALMSRLSISKDNSKSQVFLKMNSLQTDDTAIYYCARARGAMDYWGQGTSVTVSS
VL: DIVMTQTTSHLSVSLGDRVTIACKASAHINNWLAWYQQKPGNAPSLLIAGATGLETGVPSRFSGSGSGKDFTLSISSLQTEDVATYYCQQYWDTPYTFGGGTKLEIR
notes: also called 9B4-derived scFv (variant VL-VH); source: E. coli BL21(DE3), from inclusion bodies, renatured, purified (Ni-NTA); not shown: His6, N-terminal, kept
B2: anti-VLY scFv 9B4 (VH-VL) (scFv, V domains shown)
VH: QVQLEQSGPGLVAPSESLTITCTVSGFSLNSYGVHWVRQPPGKGLEWVGVMWAGGNTSYNSALMSRLSISKDNSKSQVFLKMNSLQTDDTAIYYCARARGAMDYWGQGTSVTVSS
VL: DIVMTQTTSHLSVSLGDRVTIACKASAHINNWLAWYQQKPGNAPSLLIAGATGLETGVPSRFSGSGSGKDFTLSISSLQTEDVATYYCQQYWDTPYTFGGGTKLEIR
notes: also called 9B4-derived scFv (variant VH-VL); source: E. coli BL21(DE3), from inclusion bodies, renatured, purified (Ni-NTA); not shown: His6, N-terminal, kept
B3: anti-VLY scFv 23A2 (VL-VH) (scFv, V domains shown)
VH: QVQLEQSGAELVRSGASVKISCKASGYTFPSYNMHWVKQTPGQGLEWIGYIYPGNGVTNYNQKFKGKATLTADTSSSTAYMQISSLTSEDSAVYFCAREEGGNLLWGHFAMDYWGQGTSVTVSS
VL: DIVMTQTTLSLPVSLGDQASISCRSSQSLVHSNGNTYLHWYLQKPGQSPKLLIYKVSNRFSGVPDRFSGSGSGTDFTLKISRVEAEDLGVYFCSQSTHVPPTFGGGTKLEIR
notes: also called 23A2-derived scFv (variant VL-VH); source: E. coli BL21(DE3), from inclusion bodies, renatured, purified (Ni-NTA); not shown: His6, N-terminal, kept
B4: anti-VLY scFv 23A2 (VH-VL) (scFv, V domains shown)
VH: QVQLEQSGAELVRSGASVKISCKASGYTFPSYNMHWVKQTPGQGLEWIGYIYPGNGVTNYNQKFKGKATLTADTSSSTAYMQISSLTSEDSAVYFCAREEGGNLLWGHFAMDYWGQGTSVTVSS
VL: DIVMTQTTLSLPVSLGDQASISCRSSQSLVHSNGNTYLHWYLQKPGQSPKLLIYKVSNRFSGVPDRFSGSGSGTDFTLKISRVEAEDLGVYFCSQSTHVPPTFGGGTKLEIR
notes: also called 23A2-derived scFv (variant VH-VL); source: E. coli BL21(DE3), from inclusion bodies, renatured, purified (Ni-NTA); not shown: His6, N-terminal, kept

Tests used:
[1] = molecular target: T1, vaginolysin (VLY), recombinant (Gardnerella vaginalis); assay: ELISA; indirect ELISA; recombinant purified VLY (5 μg/ml, 50 mM Na-carbonate pH 9.5) coated on MaxiSorp plates; scFv 50 μg/ml to 20 ng/ml, 1 h at RT; detected by anti-His5 MAb and HRP-labelled anti-mouse IgG; apparent Kd = molar concentration at the mid-point of the titration curve; conditions: both partners purified
T1 construct: also called recombinant VLY

[2] = molecular target: T1, vaginolysin (VLY), recombinant; assay: cell-based or functional assay

Binder | Kd [1] [nM] | other [2] [nM]
B1 | 11 | 37
B2 | 15 | 51
B3 | 92 | 110
B4 | 98 | 150

Source: article PMC3226441, “Generation of recombinant single-chain antibodies neutralizing the cytolytic activity of vaginolysin, the main virulence factor of Gardnerella vaginalis” (BMC Biotechnology, 2011)
